Assay: soluble on expression in E. coli; label from the status in PepcDB or PDB records

Row | Sequence | soluble on expression in E. coli
1 | MGSDKIHHHHHHMTYDFLIIGGGIAGTSAGAALSRLGTTCLLEAESALAYHASGRSAALFEPNYGHPVTVDLSHASATALRTLGGGVLSPRGLLILAGPGEDAALARDIKTMDLAEISIADAQDMIPILNADHITRAAHHAAAWDIDTDRMVQHYARQIRTNGAVETGATVLGLTKTPQGWTVETRDHSFHARIIVNAAGAWADDIARMAGIAPIGLTPKRRSMARMPAPRGHDVSAWPMIIGAGESWYAKPDAGAWLVSPAEEDPAAPHDAYADDMVLAEGIARYQPFVTEEVTRVTSSWAGLRTFAPDRCLVIGPDRTDPSVLWFAGQGGYGFQTAPAASQLLADLVSGAPSTLDPATVKALSPSRF | not soluble
2 | GPGSMSDAFDIDEDMKMRIRVLNEIMYEDELDDGQQDVHLARGDIIDGTSDSDRDDNGGGGQRRRERRRGGGGADVCAPGPPRAETWAAVEGPEAAAASAASSLQQRAPRDEYHDKRYHEKRSKDRLARTKQIQSARNERVPAYANKKKTSKAKAGGSKGSLQRAVKRGKFTADA | soluble
3 | MSYDANLTKYMDFLVKKTKNAAEPTTFKEIFDEYSRLDPDRSTYSMCYDKFHHRLAPIMNELNTYSIRERVRVMLTMGGKVSKDFLTTIEKLGTVQLDEKRRILKYASKDGKFKIEGARSEFMDFLIQQTRDAVRPMTSTSIAKEFCRIKDRQVSVDTFNKKFRRNLAPNMSRWSSYLLGDRIRMMFVLKGTVRTDFLAEIEKSGTVQLDDQRRIVRYASNDGMIELEEKTSGVKRRRSTKSSNTPTKRREITENELSDTDDVEVMEIVDGYVEQESASFDFEELVNREASYNLDQGHLYREILEAPLLENRDSKFNPFNAKSGRQAEVQRSGTFLNESEGTSTNAQESFVFRGFLKQEPVFEQFHIQNMSNNLVNLPIPPEIEETPVQEGHHVEPSGITGSDGIRLHKFLNSLELMLTSLESDTLNDLMQEIEEIRRRTDEILPSELVITTLQTFFLGITRKFRPETSAPSKSAKECLRIFKYALLWLKNPLLYDLQKRVQDEIENHEADGKVLLIADVQQGIRNILFTVV | not soluble
4 | MTTTLSPDTARQIVPPEERYAAELAFLAAYDDGPRPPAWRLTPRAVVTFVMGSDGRALRLPEGAETPEGVPRRLTVEGKFVGDRSLVERCVVTLAGERGLLLVGEPGTAKSMLSELLSAAVCGTSGLVVQGTAGTTEDQLKYGWNYALLLAQGPSRTALVPSPVLTAMARGGIARVEEVTRCLPEVQDALVSLLSERRIAVPELSGTDDALAHAAPGFNLIATANLRDKGVSEMSAALKRRFNFETVGPIPDLDAETALVRSQARASVERAGAPFKVDEAVLEALVVAFRDLREGRSTEGWEVERPSTVMSTAEAVSVAGALGLAAAYFPGDRDVLGLLPGHLLGVVRKDDPADAARLRGYWDGPVRRRAEQGSATWRTLWDLRTVLEGLEHHHHHH | not soluble
5 | MAGMNTENENRVEALEVRLAFQDELLDALNATVARQQKEIDLLQQQIRLLYQQFRNAQPDDAPGGSLRDDIPPHY | not soluble
6 | GPGSMPLERSFIDPGHASMGYEAGLIPRLRRDSIVRGVLEENEDMLREIDLLRDTVTKQAQELFTATKRIHVLESRLARLEGAEDASHERTDDSDNVEEVTSVDKAGILRSIFRAISSCQFGDRHTRIRAYKQGLVRKSAEKARDFGEKSEKKSELPGKEQQDFLGHAFHESNKRLDEVSSLLQSYRKTPSFLVSAYDELVIDCMMEIIRLSKKMNLMTVGDFGALAD | not soluble
7 | METDPDYSMVLLTENFPPYNMAINGKNFAQEDNIDGIAVDIVREMFKRAGIKYSLTLRFPWDRIYKLALEKPGYGVFVTARLAEREDKFKWVGPIGPDDWVLLAKGDSPITLGSLDEAKKYRIGAYKGDAIAEFLGKNGFEADLALRDQENAQKLVKGQIDLWASGDPAGRYLAKQEGVTGLKTVLRFNSDQLYLALNRETPDEVVQKLQAALDGMRKEGFVEDILNSYLLEHHHHHH | soluble
8 | MSLRAAARELSVGHTPTIGLVVADLANPFFAQLADRVVWEARSHGVQVMVMTTQEDPHLEADSLDTLLDRSVGGVIATPTGANIEKWARLQSLGVNVVFVDRTIPELEDVDLVSIENVDSARRATEHMLGLGHRRIGLITGPVSTSTGRSRIEGYKAAHNNFSISVDPQLIRDVAFRGDGGGDAVGSLLALPDRPTALIVANTAQVLSSVRRLVQIGVRIPDDLSVIVFDDNPWTELTNPPLSVIRQPIDMLAVHSLELVLGRMQGRLPAAPRTIEVKADFVPRSSCSPLALSEGHHHHHH | soluble
9 | MNINRNKIVQLADTDTIENLTSALSQRLIADQLRLTTAESCTGGKLASALCAAEDTPKFYGAGFVTFTDQAKMKILSVSQQSLERYSAVSEKVAAEMATGAIERADADVSIAITGYGGPEGGEDGTPAGTVWFAWHIKGQNYTAVMHFAGDCETVLALAVRFALAQLLQLLL | not soluble
10 | MGSDKIHHHHHHMSVLKATNSIEQRLQIQRLQAPTRVVTSTAGGDVVRGLTQTPKTLPPCYFYDDRGSELFERICELPEYYVTRTETAILQRFAGEIARITGACELVELGSGNSTKTRILLDAYQQLDYPLRYLPIDVCAGILESSAKQLLQDYPSLEVYALAGTYELALAQLTPKKLSSRMICFIGSTLGNLNLQECDVFLSQIRATLNVGEYFLLGVDLQKPKEILEPAYDDSQGVTAEFNLNMLEHLNRSFEGNFDTTQFKHWAFYNESEQRIEMHLKSERSQTVQLKSLNLTVNLAQGETILTEISRKFNLESIQQQLAAKGLIPVQTWTDVNQWFGLLLCQVQG | not soluble
11 | MTRTLASLFGPLQPMALAEDLAAPLLAMPIPEGAADPAAAARAPAAGPTVPDRFTVARGLAVVPVRGILTPNMAQYERWFGWATYHGLAETMAHLAASEDAAAIVLEIDSPGGLVCGIEAAAEAIAAAAAVKPVHALVSPLAASAAYWLASQASEIVMTPGAVAGSIGVALTAAAHVQPGANGAQIFEMSSRHARAKRPDASTEAGRAELQRSLDEAEAAFHAAVSAGRAIPAAELAARLSVTDDPQDGGATFRAPEAIRRGLADRIETRAAFYARLAARTAPKPRSPSRAFAARAAAAAALARS | not soluble
12 | MMKEFNPREIEKKWQKRWEEAGVFKAQEGKPNKFYVLEMFPYPSGRIHMGHVRNYTIGDAIARYLKMRGKNILHPMGWDAFGLPAENAAIKHGIHPAKWTYENIDYMKKQLKILGFSYDWDREIATCDPEYYKWNQWIFLKMLERGIAYRKTAKVNWCPHDQTVLANEQVIEGKCWRCGTPIVQKEVPSWFLRITAYADRLLEDLKKLEGKWPERVIAQQRNWIGRSEGALIRFYVEIEEPEKFLNCVPEELKETLLKEKRIYIDVFTTRPDTVFGATFVVLAPEHPLVPVLACIGERLGNACYSDVENFVEKMKKMSTRERTMEEDKEGVFLGVYATNPANGEKIPVWSANYVLYEYGTGAIMCVPAHDQRDWEFAKKYDLPIKVVVKPEGAWDFEKGAYEGKGTLVNSDGFDGLDSETAKRKITEWLQDRGLGEKKVSYRLRDWNISRQRYWGTPIPVVYCEKCGMVPVPEDQLPVKLPLDVKFTGQGNPLETSEEFVNTTCPKCGGKARRETDTMDTFFDSSWYFLRFCDPKNDREPFSREKVDYWMPVDVYIGGIEHAVLHLLYARFFQKFLKDLGLVRDDEPFEKLITQGMVLKKWVSVKKLLDYLGLSEEDEVEELKKRLEELGARRA | soluble
13 | MAGDPMKKTLTVTVSSVLAFLALNNAAHAQQHGTQVKTPVQHNYVSNVQAQTQSPTTYTVVAGDSLYKIALEHHLTLNQLYSYNPGVTPLIFPGDVISLVPQNKVKQTKAVKTPVRKASQAKKVVKQPVQQASKKVVVKQAPKQAVAKTVNVAYKPAQVQKSVPTVPVAHNYNKSVANRGNLYAYGNCTYYAFDRRAQLGRSIGSLWGNANNWNYAAKVAGFKVDKTPEVGAIFQTAAGPYGHVGVVESVNPNGTITVSEMNYAGFNVKSSRTILNPGKYNYIHLEHHHHHH | not soluble
14 | MMSAYNKLVRDRVPEKILMSGKTYTAQKLTGQAYIQALAKIGTEEIREFASMKEREHALDSLADALEVIISLARAEGASIEDVERLRKQKEIERGGFERGIYLLDVSEE | not soluble
15 | GPHMLGILNKMFDPTKRTLNRYEKIANDIDAIRGDYENLSDDALKHKTIEFKERLEKGATTDDLLVEAFAVVREASRRVTGMFPFKVQLMGGVALHDGNIAEMKTGEGKTLTSTLPVYLNALTGKGVHVVTVNEYLASRDAEQMGKIFEFLGLTVGLNLNSMSKDEKREAYAADITYSTNNELGFDYLRDNMVLYKEQMVQRPLHFAVIDEVDSILIDEARTPLIISGQAAKSTKLYVQANAFVRTLKAEKDYTYDIKTKAVQLTEEGMTKAEKAFGIDNLFDVKHVALNHHINQALKAHVAMQKDVDYVVEDGQVVIVDSFTGRLMKGRRYSEGLHQAIEAKEGLEIQNESMTLATITFQNYFRMYEKLAGMTGTAKTEEEEFRNIYNMQVVTIPTNRPVVRDDRPDLIYRTMEGKFKAVAEDVAQRYMTGQPVLVGTVAVETSELISKLLKNKGIPHQVLNAKNHEREAQIIEEAGQKGAVTIATNMAGRGTDIKLGEGVKELGGLAVVGTERHESRRIDNQLRGRSGRQGDPGITQFYLSMEDELMRRFGAERTMAMLDRFGMDDSTPIQSKMVSRAVESSQKRVEGNNFDSRKQLLQYDDVLRQQREVIYKQRFEVIDSENLREIVENMIKSSLERAIAAYTPREELPEEWKLDGLVDLINTTYLDEGALEKSDIFGKEPDEMLELIMDRIITKYNEKEEQFGKEQMREFEKVIVLRAVDSKWMDHIDAMDQLRQGIHLRAYAQTNPLREYQMEGFAMFEHMIESIEDEVAKFVMKAEIENNLEREEVVQGQTTAHQPQEGDDNKKAKKAPVRKVVDIGRNAPCHCGSGKKYKNCCGRTE | soluble
16 | MLKLFSAFRKNKIWDFNGGIHPPEMKTQSNGTPLRQVPLAQRFVIPLKQHIGAEGELCVSVGDKVLRGQPLTRGRGKMLPVHAPTSGTVTAIAPHSTAHPSALAELSVIIDADGEDCWIPRDGWADYRTRSREELIERIHQFGVAGLGGAGFPTGVKLQGGGDKIETLIINAAECEPYITADDRLMQDCAAQVVEGIRILAHILQPREILIGIEDNKPQAISMLRAVLADSNDISLRVIPTKYPSGGAKQLTYILTGKQVPHGGRSSDIGVLMQNVGTAYAVKRAVIDGEPITERVVTLTGEAIARPGNVWARLGTPVRHLLNDAGFCPSADQMVIMGGPLMGFTLPWLDVPVVKITNCLLAPSANELGEPQEEQSCIRCSACADACPADLLPQQLYWFSKGQQHDKATTHNIADCIECGACAWVCPSNIPLVQYFRQEKAEIAAIRQEEKRAAEAKARFEARQARLEREKAARLERHKSAAVQPAAKDKDAIAAALARVKEKQAQATQPIVIKAGERPDNSAIIAAREARKAQARAKQAELQQTNDAATVADPRKTAVEAAIARAKARKLEQQQANAEPEQQVDPRKAAVEAAIARAKARKLEQQQANAEPEEQVDPRKAAVEAAIARAKARKLEQQQANAEPEQQVDPRKAAVEAAIARAKARKREQQPANAEPEEQVDPRKAAVEAAIARAKARKLEQQQANAVPEEQVDPRKAAVAAAIARAQAKKAAQQKVVNEDLEHHHHHH | soluble
17 | KGKLPPVVHGTTPFVGHIIQFGKDPLGFMLKAKKKYGGIFTMNICGNRITVVGDVHQHSKFFTPRNEILSPREVYSFMVPVFGEGVAYAAPYPRMREQLNFLAEELTVAKFQNFAPSIQHEVRKFMKANWNKDEGEINILDDCSAMIINTACQCLFGEDLRKRLDARQFAQLLAKMESCLIPAAVFLPWILKLPLPQSYRCRDARAELQDILSEIIIAREKEEAQKDTNTSDLLAGLLGAVYRDGTRMSQHEVCGMIVAAMFAGQHTSTITTTWSLLHLMDPRNKRHLAKLHQEIDEFPAQLNYDNVMEEMPFAEQCARESIRRDPPLVMLMRKVLKPVQVGKYVVPEGDIIACSPLLSHQDEEAFPNPREWNPERNMKLVDGAFCGFGAGVHKCIGEKFGLLQVKTVLATVLRDYDFELLGPLPEPNYHTMVVGPTASQCRVKYIKKKKAAA | soluble

Reference: the DeepSol protein solubility set
